Assay: soluble on expression in E. coli; label from the status in PepcDB or PDB records

Sequence | soluble on expression in E. coli
MSELHYLYGKPTGTADLRTVNSDFIVKEILPFSPSGEGEHHLVHIRKDGLNTVQVAEMLAKFAKVHPKEVTYAGQKDKNAITEQWFGIRIPGKETPAWIELNSDRLTVLSSSRHSKKLRIGALLGNRFILTLRNVTNVEDIISRIEKVSQIGVPNYFGEQRFGHDGKNLVLGRQMLAGKKVKDRNKRSMYLSAVRSHLFNTVVSYRLTHYGTRPLAGDCVMLAGSKSFFVTPEWDLVVLKRLIEKDIQLSAPLWGRGKMLPQGEAAEVETQAMADLTEDCYGLEHAGLEQERRPLLLEPQGLKHEQTSDGLVLEFILPAGCFATSLLRELVDYQDVKELQWQTTLTAETNVVTESNTAAANVSDNGESASLEHHHHHH | soluble
MAHHHHHHMADQIYHKLINENIKMLCNDLLPNEKKDEKKKEYYNNMNINCSSKCEELCNNINDRLQKIKDIVHLRSTKANGILIETLNYIKEYIKEIEKYIQIFNKLIYEENRAYLFIEEIFNTLENQNQNIQKIYNICSKNIVITKNNNELILKNPKACSSLSYEFVNNLMNSGQQKNNNNNNNKKEQIVQQHNIENQGANYLN | not soluble
MTRRVLLLSASVLLATAGYAPEPYYNKYGGYHKALDKKHGGYEADQTGYGGHNGMSDYGNEQGAYGHYDGKYGEAGKKSGQEYYAKGDEHGHGDEAHEKGLKKNGDAYGGKKFSYFTSGSGPYGSYQKGYYGSDGYEHDDHKSKYSSHNEDNGFKKGYDGAGAGHDDKYTSYDKEDAGHKKHHDKYDIGKYGAKQGGYAKQGHEEGWKNEAQKNSYGSRENGQEYGHPYY | not soluble
MNIITLKVAIVEPLPMIRAGLEALLKKITGYKIQFIDAPADNGWVDVISFYCPDVVFMNPLVSGLTRNESDKACPQSRYVGLLTTPIDSNMLHNYDDTLSVHATVEELKQLLERLYQKTLEPEESGEEQQTLTNREKEIVVGVVKGMTNKEIAEELFLSTHTVITHRRNIAKKLQIHSPSGLTIYAIMNKLVNLDEIAH | not soluble
MNSLLRLSHLAGPAHYRALHSSSSIWSKVAISKFEPKSYLPYEKLSQTVKIVKDRLKRPLTLSEKILYGHLDQPKTQDIERGVSYLRLRPDRVAMQDATAQMAMLQFISSGLPKTAVPSTIHCDHLIEAQKGGAQDLARAKDLNKEVFNFLATAGSKYGVGFWKPGSGIIHQIILENYAFPGLLLIGTDSHTPNGGGLGGLCIGVGGADAVDVMADIPWELKCPKVIGIKLTGKLNGWTSAKDVILKVADILTVKGGTGAIVEYFGPGVDSISATGMGTICNMGAEIGATTSVFPYNESMYKYLEATGRKEIAEEARKYKDLLTADDGANYDQIIEINLDTLTPHVNGPFTPDLASSIDKLGENAKKNGWPLDVKVSLIGSCTNSSYEDMTRAASIAKQALDKGLKAKTIFTITPGSEQVRATIERDGLSKIFADFGGMVLANACGPCIGQWDRQDVKKGEKNTIVTSYNRNFTGRNDANPATHGFVTSPDITTAMAISGRLDFNPLTDELTAADGSKFKLQAPTGLDLPPKGYDPGEDTFQAPSGSGQVDVSPSSDRLQLLSPFDKWDGKDLEDMKILIKVTGKCTTDHISAAGPWLKYRGHLDNISNNLFLTAINADNGEMNKVKNQVTGEYGAVPATARKYKADGVRWVAIGDENYGEGSSREHAALEPRHLGGRAIIVKSFARIHETNLKKQGMLPLTFANPADYDKIDPSDNVSIVGLSSFAPGKPLTAIFKKTNGSKVEVTLNHTFNEQQIEWFKAGSALNRMKEVFAKSK | soluble
MKIFNNVHCRIRNTISCSNYIFSAVWNFLISVFINKTNFNNSVYCRIFKVSIGLRKSISSTTRTRWVPVVFICSRSTNRWTGARSVNPIRNLIYIKLSILNKVRPIFRLEHHHHHH | not soluble
PQRSQRESRHLFIREAKKLCQKEFKRWFILAADVNPLMKYFKDRELPIPTLYLMGDRDYMFIQPVKEMVAAHKLSILREIPNCGHVCNVERPEDFNQHSIEFIKQQSIVA | not soluble
GSHMGIKNDLEIRLQKLQQQGNFKNYLEQYPTDASTAAYFLIEIYNDGNIGGRSVIDAGTGNGILACGSYLLGAESVTAFDIDPDAIETAKRNCGGVNFMVADVSEISGKYDTWIMNPPFGSVVKHSDRAFIDKAFETSMWIYSIGNAKARDFLRREFSARGDVFREEKVYITVPRIYRHHSYDRARIEAVIFGVRNHSF | soluble
MEINEKLLRQIIEDVLSEMKGSDKPVSFNAPAASAAPQATPPAGDGFLTEVGEARQGTQQDEVIIAVGPAFGLAQTVNIVGIPHKSILREVIAGIEEEGIKARVIRCFKSSDVAFVAVEGNRLSGSGISIGIQSKGTTVIHQQGLPPLSNLELFPQAPLLTLETYRQIGKNAARYAKRESPQPVPTLNDQMARPKYQAKSAILHIKETKYVVTGKNPQELRVAL | soluble
MRNIIFTGKGGVGKTSVAAATALKAADMGYKTLIMSTDPAHSLGDSLDIELGPSPVKVAENLWGQEVSVFGDLNLNWDVVREHFAHLMASRGIEGVYAEEMGVLPGMEELFSLSYIKRYNEEQKDFDLLVVDCAPTGETLRLLSLPETFGWFIKMIRNIEKYMVKPVIRPLSKKVKKLDDFVAPEEVYEKVDNLFSSTEGIIDLLADGTKTTMRLVMNPEKMVIKESMRALTYLNLYGITVDRITINRVMPDQSPDPYFQQWRNIQQKYIDQINSAFAPIPVAEVPLFNNEVVGLEMLRKVGEKVYGDENPLDIF | not soluble
MSAVLKKNKPFSILLMGTDTGALGRSDVGRTDTLMVATINPTKETAYLTSIPRDTRVTVGSGVNASVQKINAAYTIGGSKTAVKTVENLLDIPIDFYAIVNMGGLEKMVDAVGGVDVTPPLTFHYGAANVTKGKKTHLNGKQALAYSRMRHEDPLGDYGRQKRQRQVLQKMVVKAAGLSSITRYQTILKSLNGNLKTDLTFDDLMQIRAKYGDASHHIKSETLQGQDAMIDGLSYQVPTTSELKKVSNHIRKTLELANTTKFTTDADTDTTGSTAYGSSDNSGYGYLEHHHHHH | soluble
ISISRADLAFDLFEVDCSEFVLEKKGRPTATKEFRSSTGTLETKYLGAPRSEKQVRLYNKKKEQLQNGTDKDKDFASQFKHWWRLEFQLRSRSIDEIFEVIDTIIFKPFNLKGLSIETQIYLTALIHDKNIWKKLHRNTRARYKKILETHQTSDTDYLGLLKDLLKHERPRLENQLAYYGGRIDKNSFQPFC | not soluble
MDLPVMPPVKPMLAKSVAKIPPDMQYEAKWDGFRAIVFRDGTEVELGSRTGKPLTRYFPELVEALRDRLPERCVIDGEIVIARDGRLDFDALTERIHPAESRVRMLAEKTPASFVAFDLLALADDSLLDTPLTERRALLESALSGVTAPVHVAPATTDREVAEQWFEQYEGAGLDGVIAKPLTLRYRQDERAMFKVKHERTADVVVAGYRLHKSGPVVGSLLLGLYDDRGALQHVGVSAAFPMKRRAELVEELEPLRMEDAAGHPWAAWSNEAAHETARLPGAPSRWSGKKDLSWVPLRPERVAEVAYDHMENGARFRHTARFRRWRPDRTPESCTYAQLEEPVSYDLTEILGSRGLEHHHHHH | soluble
MKTMRKILEIDEERCNGCGLCVLDCAEGAIAIVDGKAKIVSDSFCDGLGACIGSCPQDALHIIEREAVPFDEEAAMEHVRSQGGTPEANHGHGHGAGTPHRHGQSAEHGGHGRIPGHGGCPGAAMRRFDSAESPAFAVAEGTVKGPGHWPLKIRLVPPTAPFLKGADVLVAADCAAAASPIFHSHFAAGKVVLIGCPKFDDTEAYAERLADILRVSGIASLTVLRMEVPCCRGLSAAAEKARVLSGTSLVLKEVIMTCAGGPAAPAPLSSL | soluble
MAKLRPYYEESQSAYDISDDFFALFLDPTWVYTCAYFERDDMTLEEAQLAKVDLALDKLNLEPGMTLLDVGCGWGGALVRAVEKYDVNVIGLTLSRNHYERSKDRLAAIGTQRRAEARLQGWEEFEENVDRIVSFEAFDAFKKERYLTFFERSYDILPDDGRMLLHSLFTYDRRWLHEQGIALTMSDLRFLKFLRESIFPGGELPSEPDIVDNAQAAGFTIEHVQLLQQHYARTLDAWAANLQAARERAIAVQSEEVYNNFMHYLTGCAERFRRGLINVAQFTMTK | soluble
MGSDKIHHHHHHMAEINYQLIDFDNRGDLGLKNEPFELFGRMKIDRLNNNWSYEVEIFTHKRTMAFPDERYHLQEINQNGFALGAYDDSNCVGLAIYQKHWNKYLYLKDLKVNRDHRKLGIGNQLIKEGLRRAVQLGYKGVYAVCQDNNLAACQFYLKIGFQIGGFNDFDYNYTTQSGKSDIYFYLDKNSAR | not soluble
MLDLVNQLELDSQMKQFKLVSQMTRQDVIILDEPGYLPFSQKRGALLFHLMSQLHENTSVIITTNLEFSEWGTLFTEAKMTNALLDRLIHHCHMLETGNESYRFKHRNLEHHHHHH | not soluble
MEALKIALLGGGTVGSAFYNLVLERAEELSAFGVVPRFLGVLVRDPRKPRAIPQELLRAEPFDLLEADLVVEAMGGVEAPLRLVLPALEAGIPLITANKALLAEAWESLRPFAEEGLIYHEASVMAGTPALSFLETLRGSELLELHGILNGTTLYILQEMEKGRTYAEALLEAQRLGYAEADPTLDVEGIDAAHKLTLLARLLVDPGFPFAEVEAQGIARLTPEVLQKAEARGERVRLVASLFGEGGRWRAAVAPRRLPQDHPLARARGNALWVRARPLGEAFVTGPGAGGGATASGLFADLLRFLSGAPGHLPAPRARPPLEEGSPWPGVE | soluble
IQFTESCSMDQSAKEPLINYLDMEYFGTISIGSPPQNFTVIFDTGSSNLWVPSVYCTSPACKTHSRFQPSQSSTYSQPGQSFSIQYGTGSLSGIIGADQVSVEGLTVVGQQFGESVTEPGQTFVDAEFDGILGLGYPSLAVGGVTPVFDNMMAQNLVDLPMFSVYMSSNPEGGAGSELIFGGYDHSHFSGSLNWVPVTKQAYWQIALDNIQVGGTVMFCSEGCQAIVDTGTSLITGPSDKIKQLQNAIGAAPVDGEYAVECANLNVMPDVTFTINGVPYTLSPTAYTLLDFVDGMQFCSSGFQGLDIHPPAGPLWILGDVFIRQFYSVFDRGNNRVGLAPAVPWSHPQFEK | soluble
MKKEIKFSLVYRDMWQSSGKYQPRADQLVRIAPLIIEMGCFSRVETNGGAFEQVNLLYGENPNKAVRAFTKPFHEASIQTHMLDRGLNGLRMYPVPADVRRLMYKVKHAQGVDITRIFCGLNEVRNIIPSIHYALEAGMIPQATLCITFSPVHTVEYYTAIAERLIEAGAPEICLKDMAGVGRPEMLGRLTKAIKERHPEIIIQYHGHSGPGLSMASILEVCENGADIIDVAMEPISWGKVHPDVISVQAMLKDAGFQVPEINMKAYMKARAMTQEFIDDFLGYFMDPTNKHMSSLLLKCGLPGGMMGSMMADLKGVHSGINLILRGKNEPELSIDDLLVMLFDEVEYVWPKLGYPPLVTPFSQYVKNVALMNVMSLIKGEERWTMIDNHTWDMILGKSGRLPGALAPEIIALAKEKGYEFTDEDPQKNYPDQLDEYRKEMTENGWDFGQDDEELFELAMHDRQYRDYKSGIAKKRFEDDLQRAKDAALAKQGFSEEEVKRMKRAKAEPVTAMEKGQIIWEIDVESPSMPPEVGHKYDPDDVFCYIATPWHTYDKVLANFSGRVIEVCAKQGALVDKGEPLAYIERCEEPA | not soluble
MSNRVVIDHIGASGHGISNISHDSLSVPFTLPGEVAIVALRGKYGKLIALEKKSSERIDAICQHFENCGGCVLQHWHADAYRSWKRQLVIDALKRYGIDVFVSPLIEGGYQNRRRITLTALATQKGHIVGFNRYLSHDVIALEECPVTRLEIMSKLNSIKLLCALVGNHTKRFQVTVTSVENGLDVAFNGCVVRDEHIRQQMIHTALAYGMTRLSVEGEILVEREKPLVYFGDVCVEFPAGGFLQATFEAENIMGNIILAYLEKAKNAVDLFSGLGTFTLRMAKKMNVHAVENNETALANLDRAARFATGLKTITCERRDLFRRPLSAKELSCFECVVFDPPRAGAQEQVRELAKTTIPRVVTISCNPVTFARDLSLLVAGGYTIEKIIPIDQFLWSPHVEIVALLSKRKIKANWKL | not soluble
